# Measured values as given in PMC8760278.
# Experiments:
# [1] = target: properdin from human serum (human) (UniProt P27918)
# [2] = target: properdin from human serum (human) (UniProt P27918); remark: listed apart in the source
# [3] = target: monomeric properdin lacking TSR domains 2 and 3 (FPΔ2,3) (human) (UniProt P27918); test: MST; RED-NHS labelled FPΔ2,3 constant at 50 nM, CirpA1 2 nM to 64 uM; PBS, 0.05% Tween-20, pH 7.4; Monolith NT.115
# [4] = target: monomeric properdin lacking TSR domains 2 and 3 (FPΔ2,3) (human) (UniProt P27918); test: SEC-MALS; FPΔ2,3 with added CirpA1; S200 10/300 column in PBS, 100 uL at 1 mg/mL
# Chain of UniProt P27918 (P27918 28-469): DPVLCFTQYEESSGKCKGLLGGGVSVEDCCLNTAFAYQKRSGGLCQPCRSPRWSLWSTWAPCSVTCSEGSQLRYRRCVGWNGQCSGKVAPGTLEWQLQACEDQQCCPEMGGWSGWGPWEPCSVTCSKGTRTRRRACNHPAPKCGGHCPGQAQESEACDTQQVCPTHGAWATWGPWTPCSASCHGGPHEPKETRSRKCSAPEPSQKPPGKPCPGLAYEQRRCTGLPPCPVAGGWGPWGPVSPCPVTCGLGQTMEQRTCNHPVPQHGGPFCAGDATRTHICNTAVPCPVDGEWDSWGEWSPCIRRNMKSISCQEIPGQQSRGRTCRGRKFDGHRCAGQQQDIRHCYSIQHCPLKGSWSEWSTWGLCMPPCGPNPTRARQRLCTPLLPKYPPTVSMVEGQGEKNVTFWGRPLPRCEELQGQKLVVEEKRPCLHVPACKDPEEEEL
substance,measurement,setting,value
"CirpA1, recombinant, preparation not stated for the experiment (natural protein)","inhibition of the alternative pathway (MAC formation), WIESLAB assay, human serum",[1],13 nM
same,"AP haemolysis assay, human serum, rabbit erythrocytes; CirpA1 purified from insect cells",[2],1.41e-08
same,Kd,[3],0.097 µM
CirpA6 (natural protein),"AP haemolysis assay, human serum, rabbit erythrocytes",[2],1.4e-08
"CirpA1 (Complement inhibitor from R. pulchellus of the alternative pathway 1), refolded (natural protein)",stoichiometry N,[4],1
